Laboratory results: US20110177504A1

Molecular target: murine LY6C polypeptide on YAMC cells (murine) (UniProt P0CW02)
Test: cell-based or functional assay

UniProt P0CW02, sequence (P0CW02 27-109 limits assumed): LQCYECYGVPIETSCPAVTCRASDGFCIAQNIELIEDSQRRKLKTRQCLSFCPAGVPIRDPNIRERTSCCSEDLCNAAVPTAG

CCL2 mRNA, quantitative RT-PCR, YAMC cells on plate-bound antibody 24 h, IFN pre-treatment: 16.1 fold change | CCL2 mRNA, quantitative RT-PCR, YAMC cells on plate-bound antibody 24 h, Media pre-treatment: 8.81 fold change | CCL4 mRNA, quantitative RT-PCR, YAMC cells on plate-bound antibody 24 h, IFN pre-treatment: 16.1 fold change | CCL4 mRNA, quantitative RT-PCR, YAMC cells on plate-bound antibody 24 h, Media pre-treatment: 3.15 fold change | CCL5 mRNA, quantitative RT-PCR, YAMC cells on plate-bound antibody 24 h, IFN pre-treatment: 10.1 fold change | CCL5 mRNA, quantitative RT-PCR, YAMC cells on plate-bound antibody 24 h, Media pre-treatment: 3.31 fold change | CCL7 mRNA, quantitative RT-PCR, YAMC cells on plate-bound antibody 24 h, IFN pre-treatment: 5.81 fold change | CCL7 mRNA, quantitative RT-PCR, YAMC cells on plate-bound antibody 24 h, Media pre-treatment: 3.37 fold change | CCL8 mRNA, quantitative RT-PCR, YAMC cells on plate-bound antibody 24 h, IFN pre-treatment: 110 fold change | CCL8 mRNA, quantitative RT-PCR, YAMC cells on plate-bound antibody 24 h, Media pre-treatment: 12.8 fold change | CCL25 mRNA, quantitative RT-PCR, YAMC cells on plate-bound antibody 24 h, IFN pre-treatment: 1.46 fold change | CCL25 mRNA, quantitative RT-PCR, YAMC cells on plate-bound antibody 24 h, Media pre-treatment: 1.16 fold change | CXCL1 mRNA, quantitative RT-PCR, YAMC cells on plate-bound antibody 24 h, IFN pre-treatment: 13.4 fold change | CXCL1 mRNA, quantitative RT-PCR, YAMC cells on plate-bound antibody 24 h, Media pre-treatment: 11.6 fold change | CXCL2 mRNA, quantitative RT-PCR, YAMC cells on plate-bound antibody 24 h, IFN pre-treatment: 113 fold change | CXCL2 mRNA, quantitative RT-PCR, YAMC cells on plate-bound antibody 24 h, Media pre-treatment: 21.8 fold change | CXCL5 mRNA, quantitative RT-PCR, YAMC cells on plate-bound antibody 24 h, IFN pre-treatment: 151 fold change | CXCL5 mRNA, quantitative RT-PCR, YAMC cells on plate-bound antibody 24 h, Media pre-treatment: 118 fold change | CXCL10 mRNA, quantitative RT-PCR, YAMC cells on plate-bound antibody 24 h, IFN pre-treatment: 12.2 fold change | CXCL10 mRNA, quantitative RT-PCR, YAMC cells on plate-bound antibody 24 h, Media pre-treatment: 5.11 fold change | CXCL12 mRNA, quantitative RT-PCR, YAMC cells on plate-bound antibody 24 h, IFN pre-treatment: -3.02 fold change | CXCL12 mRNA, quantitative RT-PCR, YAMC cells on plate-bound antibody 24 h, Media pre-treatment: -1.99 fold change | lowest coating concentration of antibody giving detectable CXCL5 secretion, ELISA: 1 µg/mL
Substance: Anti-LY6C (clone HK1.4), Southern Biotech (antibody)
